{
  "source": "patent US20150353647A1",
  "about": "(UNIVERSITY OF TENNESSEE RESEARCH FOUNDATION, published 2015)",
  "target": "human tissue plasminogen activator (TPA) (human, UniProt P00750 36-562)",
  "sequence (P00750 36-562 limits assumed)": "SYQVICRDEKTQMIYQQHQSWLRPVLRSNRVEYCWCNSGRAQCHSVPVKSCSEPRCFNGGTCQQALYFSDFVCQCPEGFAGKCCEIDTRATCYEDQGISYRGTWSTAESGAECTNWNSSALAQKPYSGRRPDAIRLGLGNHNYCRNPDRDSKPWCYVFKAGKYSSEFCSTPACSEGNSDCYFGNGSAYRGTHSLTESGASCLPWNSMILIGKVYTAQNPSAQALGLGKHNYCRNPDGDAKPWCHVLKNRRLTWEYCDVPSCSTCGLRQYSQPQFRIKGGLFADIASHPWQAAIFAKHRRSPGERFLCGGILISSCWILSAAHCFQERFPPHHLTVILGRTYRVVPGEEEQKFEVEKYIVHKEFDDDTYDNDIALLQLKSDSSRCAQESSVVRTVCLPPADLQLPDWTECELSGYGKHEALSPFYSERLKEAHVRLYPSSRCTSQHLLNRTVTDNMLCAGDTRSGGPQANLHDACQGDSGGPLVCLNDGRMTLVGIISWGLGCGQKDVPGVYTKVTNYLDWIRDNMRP",
  "assay": "cell-based or functional assay",
  "data": [
    {"binder": "stable mutant human PAI-1 (four amino acid substitutions, N150H, K154T, Q319L, and M354I) (other, UniProt P05121 24-402, looked up) VHHPPSYVAHLASDFGVRVFQQVAQASKDRNVVFSPYGVASVLAMLQLTTGGETQQQIQAAMGFKIDDKGMAPALRHLYKELMGPWNKDEISTTDAIFVQRDLKLVQGFMPHFFRLFRSTVKQVDFSEVERARFIINDWVKTHTKGMISHLLGTGAVDQLTRLVLVNALYFNGQWKTPFPDSSTHRRLFHKSDGSTVSVPMMAQTNKFNYTEFTTPDGHYYDILELPYHGDTLSMFIAAPYEKEVPLSALTNILSAQLISHWKGNMTRLPRLLVLPKFSLETEVDLRKPLENLGMTDMFRQFQADFTSLSDQEPLHVALALQKVKIEVNESGTVASSSTAVIVSARMAPEEIIIDRPFLFVVRHNPTGTVLFMGQVMEP", "values": [
      {"measurement": "IC50, inhibition of TPA-induced fibrinolysis of human plasma clots (0.5 nM TPA, 2 hrs)", "result": 4.53, "unit": "nM"}
    ]}
  ]
}
